Tested on: AFY10X
Experiment: epPCR-screening by replica-plating on xylose plus glucose media
Format: cell-based, Saccharomyces cerevisiae
Conditions: media with 1% xylose and increasing amounts of glucose (up to 5%)
From the text: Mutants of GAL2 were created using error-prone PCR (epPCR) and then screened in AFY10X as described in Farwick et al. (2014). This method is faster than evolutionary engineering experiments and more often generates multiple mutations per ORF that might have a unique combined effect. On the downside, there might be more silent mutations among the increased number of mutations which might aggravate the identification of the relevant mutations in each clone. The GAL2 ORF was amplified in an epPCR with short amplification primers, applying various mutation rates, and the purified fragments then again amplified for recombinational cloning in a second PCR. Functional plasmids were in vivo assembled from PCR fragments and linearized p426H7 vector directly in the screening strain AFY10X. Transformants were plated out on selective SCE2 plates and subsequently screened. Colonies were tested for improved growth on media with 1% xylose and increasing amounts of glucose (up to 5%) by replica-plating. Seven clones were selected and grown in SCE2 ura^− leu^−+G418+2-DOG and samples of these cultures streaked out on plates for comparison and to obtain single colonies. Five of these seven clones were confirmed to grow on xylose glucose media. The plasmids of two clones were successfully isolated as described (yeast DNA was digested with EcoRI) and sequenced.

Row | Molecule | growth on medium (xylose + glucose)
1 | Gal2_ep3.1: Gal2 epPCR clone with mutations M107K V239L N376Y M435I L558S (protein, UniProt P13181 1-574, looked up, variant M107K V239L N376Y M435I L558S) Galactose transporter: MAVEENNMPVVSQQPQAGEDVISSLSKDSHLSAQSQKYSNDELKAGESGSEGSQSVPIEIPKKPMSEYVTVSLLCLCVAFGGFMFGWDTGTISGFVVQTDFLRRFGKKHKDGTHYLSNVRTGLIVAIFNIGCAFGGIILSKGGDMYGRKKGLSIVVSVYIVGIIIQIASINKWYQYFIGRIISGLGVGGIAVLCPMLISEIAPKHLRGTLVSCYQLMITAGIFLGYCTNYGTKSYSNSLQWRVPLGLCFAWSLFMIGALTLVPESPRYLCEVNKVEDAKRSIAKSNKVSPEDPAVQAELDLIMAGIEAEKLAGNASWGELFSTKTKVFQRLLMGVFVQMFQQLTGNNYFFYYGTVIFKSVGLDDSFETSIVIGVVYFASTFFSLWTVENLGHRKCLLLGAATMMACMVIYASVGVTRLYPHGKSQPSSKGAGNCIIVFTCFYIFCYATTWAPVAWVITAESFPLRVKSKCMALASASNWVWGFLIAFFTPFITSAINFYYGYVFMGCLVAMFFYVFFFVPETKGLSLEEIQELWEEGVLPWKSEGWIPSSRRGNNYDSEDLQHDDKPWYKAMLE | 1 + 5
2 | Gal2_ep3.3: Gal2 epPCR clone with mutations T219S M255L R267C L299S N346I E528D (protein, UniProt P13181 1-574, looked up, variant T219S M255L R267C L299S N346I E528D) Galactose transporter: MAVEENNMPVVSQQPQAGEDVISSLSKDSHLSAQSQKYSNDELKAGESGSEGSQSVPIEIPKKPMSEYVTVSLLCLCVAFGGFMFGWDTGTISGFVVQTDFLRRFGMKHKDGTHYLSNVRTGLIVAIFNIGCAFGGIILSKGGDMYGRKKGLSIVVSVYIVGIIIQIASINKWYQYFIGRIISGLGVGGIAVLCPMLISEIAPKHLRGTLVSCYQLMISAGIFLGYCTNYGTKSYSNSVQWRVPLGLCFAWSLFLIGALTLVPESPCYLCEVNKVEDAKRSIAKSNKVSPEDPAVQAESDLIMAGIEAEKLAGNASWGELFSTKTKVFQRLLMGVFVQMFQQLTGINYFFYYGTVIFKSVGLDDSFETSIVIGVVNFASTFFSLWTVENLGHRKCLLLGAATMMACMVIYASVGVTRLYPHGKSQPSSKGAGNCMIVFTCFYIFCYATTWAPVAWVITAESFPLRVKSKCMALASASNWVWGFLIAFFTPFITSAINFYYGYVFMGCLVAMFFYVFFFVPETKGLSLDEIQELWEEGVLPWKSEGWIPSSRRGNNYDLEDLQHDDKPWYKAMLE | 1 + 3
